Measurements published in PMC3874162 (Nucleic Acids Research, 2013).

B1: Cdc13 (full-length S. cerevisiae Cdc13) (natural protein, UniProt P32797 1-924, looked up)
chain: MDTLEEPECPPHKNRIFVSSSKDFEGYPSKAIVPVQFVALLTSIHLTETKCLLGFSNFERRGDQSQEDQYLIKLKFKDRGSERLARITISLLCQYFDIELPDLDSDSGASPTVILRDIHLERLCFSSCKALYVSKHGNYTLFLEDIKPLDLVSVISTISTKSTNSSKHSSSELISECDLNNSLVDIFNNLIEMNRDEKNRFKFVKLIHYDIELKKFVQDQQKVLSQKSKAAAINPFFVPNRLGIPYIESQNEFNSQLMTLNVDEPTTDISNMGEEMHDSADPIEDSDSSTTSSTGKYFSSKSYIQSQTPERKTSVPNNWHDDDSGSKRKRKLSFHSPNASSIRKAISYEQLSLASVGSVERLEGKIVGMNPPQFASINEFKYCTLKLYFTQLLPNVPDKVLVPGVNCIEIVIPTRERICELFGVLNCQSDKISDILLLEKPDRISVEVERILWDNDKTASPGMAVWSLKNISTDTQAQAQVQVPAQSSASIDPSRTRMSKMARKDPTIEFCQLGLDTFETKYITMFGMLVSCSFDKPAFISFVFSDFTKNDIVQNYLYDRYLIDYENKLELNEGFKAIMYKNQFETFDSKLRKIFNNGLRDLQNGRDENLSQYGIVCKMNIKVKMYNGKLNAIVRECEPVPHSQISSIASPSQCEHLRLFYQRAFKRIGESAISRYFEEYRRFFPIHRNGSHLAKLRFDEVKHEPKKSPTTPALAEHIPDLNADVSSFDVKFTDISSLLDSSARLPRPQQTHKSNTLYSCEGRIIAIEYHASDLCFHITNELPLLQTRGLAPERVLQLHIITSKNFAYFFNRSSAYLQRQPLEEKYTQLAQFLGHSFKFNITSSLTLFPDTTVALQIWCPIECTFRELQQQLAHPKVAAAPDSGSLDCAINATVNPLRLLAAQNGVTVKKEEDNDDDAGAVPTS
B2: Cdc13-MOB (middle OB-fold domain, residues 344-496) (domain or fragment, S. cerevisiae, UniProt P32797 344-496, looked up)
chain: KAISYEQLSLASVGSVERLEGKIVGMNPPQFASINEFKYCTLKLYFTQLLPNVPDKVLVPGVNCIEIVIPTRERICELFGVLNCQSDKISDILLLEKPDRISVEVERILWDNDKTASPGMAVWSLKNISTDTQAQAQVQVPAQSSASIDPSRT

Legend:
SEC-MALS = target: the molecule itself; experiment: SEC-MALS
native gel or EMSA = target: the molecule itself; experiment: native gel or EMSA

Protein	stoichiometry N (SEC-MALS)	Kd (native gel or EMSA)
B1	2	5.1 nM
B2	2	–
